Measurements: patent US20090209615A1, “INHIBITORS OF MATRIX METALLOPROTEINASES TO TREAT NEUROLOGICAL DISORDERS” (priority 2004, published 2009)

Test: Stability of S-nitrosothiols (NAT conversion from DAN)
Settings: within 15 min of incubation

B1: S-nitroso-MMP-9: S-nitrosylation product of SNOC-treated R-proMMP-9 (protein, UniProt P14780 20-707, looked up)
pro-form: APRQRQSTLVLFPGDLRTNLTDRQLAEEYLYRYGYTRVAEMRGESKSLGPALLLLQKQLSLPETGELDSATLKAMRTPRCGVPDLGRFQTFEGDLKWHHHNITYWIQNYSEDLPRAVIDDAFARAFALWSAVTPLTFTRVYSRDADIVIQFGVAEHGDGYPFDGKDGLLAHAFPPGPGIQGDAHFDDDELWSLGKGVVVPTRFGNADGAACHFPFIFEGRSYSACTTDGRSDGLPWCSTTANYDTDDRFGFCPSERLYTQDGNADGKPCQFPFIFQGQSYSACTTDGRSDGYRWCATTANYDRDKLFGFCPTRADSTVMGGNSAGELCVFPFTFLGKEYSTCTSEGRGDGRLWCATTSNFDSDKKWGFCPDQGYSLFLVAAHEFGHALGLDHSSVPEALMYPMYRFTEGPPLHKDDVNGIRHLYGPRPEPEPRPPTTTTPQPTAPPTVCPTGPPTVHPSERPTAGPTGPPSAGPTGPPTAGPSTATTVPLSPVDDACNVNIFDAIAEIGNQLYLFKDGKYWRFSEGRGSRPQGPFLIADKWPALPRKLDSVFEERLSKKLFFFSGRQVWVYTGASVLGPRRLDKLGLGADVAQVTGALRSGRGKMLLFSGRRLWRFDVKAQMVDPRSASEVDRMFPGVPLDTHDVFQYREKAYFCQDRFYWRVSSRSELNQVDQVGYVTYDILQCPED
modifications: pro-form S-nitrosylated
Q: With B1 as the molecule, how does the remained read?
A: over 80%
